± gives the uncertainty stated by the source.
Assay: amyloid nucleation score (Sup35N fusion, yeast selection) (log enrichment); library NNK3; higher = more nucleation; inactive = no reads after selection
Procedure, shortened: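 On medium lacking adenine and uracil, psi-negative yeast expressing peptides of 20 random codons fused to Sup35N were grown 7 days at 30°C after a 24-hour induction with 100 μM copper sulfate. Illumina sequencing of input and output plasmid inserts gave the reads, and sequences under 100 input reads were excluded. The nucleation score is the DiMSum log enrichment of output over input reads, centred on the mode score of non-aggregating sequences.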

Substance	amyloid nucleation score
LAINIFWLEDRCSPIGCNAG	inactive
LALAVGQRDRVLFVKVPVLR	inactive
LAMAPITKSSKLMLAFMR	inactive
LANSKLDCLSVHLFEHNCLA	1.95 ± 0.069
LAQSQNVVEARINSPWWDSP	inactive
LASKLDCVLPHYNVGRCNDP	0.297 ± 0.7
LAVLIVDKPYADETHRLLVR	inactive
LCAFHKRNRQEVACVMFVKS	inactive
LCAYNSTWSACNWGFIHNSL	2.58 ± 0.051
LCECR	inactive
LCESSLKDNGVTSLFVWVLK	inactive
LCFARGLRCTSSVAVESGD	inactive
LCIGVDLKPCYGSVDRYVNL	inactive
LCILMMKVKVCVGNGLFLSA	inactive
LCKFYRYRTLRHSEEKPCHH	inactive
LCLRRGGFVRIGVWVFVFYG	inactive
LCLSTIV	inactive
LCNKWY	inactive
LCRGCSLGACGNSGLKYCGW	inactive
LCRLGSSRSVSGVRLGCTLR	inactive
LCSDLVFHNR	inactive
LCSGVHHFVRNTIVKGVCDG	inactive
LCSLCNSLAQWRYNSEWLYT	inactive

Substance	amyloid nucleation score
LCSYSIESFALLHVFNEAFQ	inactive
LCTNLYWVQFIMEPEEGVIQ	1.54 ± 0.082
LCTYVFYPIANSSALSLNKV	inactive
LCVFKWLILREYISITHDSI	inactive
LCWKFAPRMLVYMMGY	inactive
LCYALQEGRRWEGYEIRNSM	inactive
LCYNVKSVCGQTMLQLVE	inactive
LDAYDSLLFL	inactive
LDFDVGI	inactive
LDFKIPRN	inactive
LDHYGLSLAHDVRRGVCCFW	1.13 ± 0.14
LDLNLRVRVLFKFTTGLTFF	inactive
LDNKFSALGCFANARFK	inactive
LDRCNFISTILPQIRFSV	inactive
LDRKFGLRYNGTSYTCDSMV	inactive
LDSIPSMSTVLLMSASGCND	inactive
LDTDGSICCCPRAIAHLL	inactive
LDTDWLGYSSLP	inactive
LEFRYPAMWLKFSLYVWTLI	inactive
LEGQMTVRRDFTRFDW	inactive
LEGSYPRADIAVNVFTVFTQ	inactive
LELDCASNRLSPNGIYMYFW	0.123 ± 0.35
LENSNFWSCSWISRYIYIRN	inactive

Substance	amyloid nucleation score
LESEASGYKMSKVRVAQCRR	inactive
LETFI	inactive
LEYAVVKSHQREESSSTCLG	inactive
LEYYAS	inactive
LFDCFVILKDFACEFKNIPD	inactive
LFEHLRW	0.685 ± 0.2
LFEYGYCMIGIQLLKRY	inactive
LFFHHVKLRH	inactive
LFFKP	inactive
LFFRLHYS	inactive
LFFYSYTSFSIC	inactive
LFGTNQYYNY	inactive
LFHHNCWNSNLSKVYMPACN	0.761 ± 0.1
LFIFNGCAM	2.31 ± 0.057
LFIRP	inactive
LFITLGAV	inactive
LFKMSV	inactive
LFKYGALLCVEVQY	inactive
LFLLFFSAHGQYIRCAIIVR	inactive
LFNDLVAHKGPDYITYATCV	inactive
LFRFGI	-0.005 ± 0.22
LFRLFVSEARTRLNCRTCNF	-0.285 ± 0.64
LFRVDRPTNCGPYFAYHEYT	inactive

Substance	amyloid nucleation score
LFSELKISSVWCDL	inactive
LFSTCSSWTQFLLRPAVSAV	inactive
LFVRVCSANYFSWEYDSRVN	inactive
LFWPICFHNMTFVLYTSLLN	inactive
LFWSNLWRRDMNISVSNYWL	1.69 ± 0.11
LFYFVWRVYKFILWSG	inactive
LFYGNW	inactive
LFYIPFCMSFWTSKDRNA	inactive
LGAAFCAPSSSYGKMGP	inactive
LGAKILCNWRVVHDSSCQHL	inactive
LGASRGMFVKNLLIMASHSR	inactive
LGCKESSVPPARVRGPGQAI	inactive
LGFESCVHRGKIKAVVMTST	inactive
LGGCPSNDGSFYVSSSLLHV	inactive
LGGLCPCF	inactive
LGIRWLLACWVVENLDFPNI	-0.719 ± 1
LGKHRANHCMAGQDVAYKWV	-0.831 ± 1.1
LGLECVGPFCKGVYFWLDG	inactive
LGLISIAESRRLSRSDSMWW	inactive
LGMGSSDYRGRYRSNS	inactive
LGNRQVRNLATYPDNYLTCT	inactive
LGQFQCQE	inactive
LGYDWRDVNNGK	inactive

Substance	amyloid nucleation score
LHCTLSNSLSYLHDIQQLLH	inactive
LHESRVAGSNQLSRRDHERW	inactive
LHEVLF	inactive
LHGNYVGQLLDLEIPVRGWI	inactive
LHIVNCCQPKHTRFVFQWYW	1.89 ± 0.1
LIDKCGKHQTFMGC	inactive
LIDMFIFNARVSNGDFYCPN	0.718 ± 0.13
LIDMVVFNYKLVIRVRKGSL	inactive
LIELSSSPRSYGHQVLM	inactive
LIGLRCMPLRV	inactive
LIGSYICYAVGLMVTLNNWW	inactive
LIIMNVKSSSSHKRAGVST	inactive
LIINIHDRLLVRVPLWDWLR	inactive
LIISLGTVVIDVQSKKSLLL	2.29 ± 0.079
LILIRAVSG	inactive
LIMGTVVLIL	1.54 ± 0.073
LINAGTKFMQDTRSCWMHSS	inactive
LINFEY	1.16 ± 0.073
LINVELYLPGLRRIWAPSSG	0.221 ± 0.54
LIQPFFWCHCHDLAVDESGE	1.66 ± 0.11
LIRAVGFGGWILIAHWYIWN	inactive
LIRGK	inactive
LISNFVWLQLRCA	inactive

Substance	amyloid nucleation score
LISTWNMAYSLSLIMMDHHS	inactive
LIVYFRPYGNALRRFVRSYV	inactive
LIYDRHSWNHWSSQHVDRDG	inactive
LKLMKNDCRFSNGNLVVVRV	inactive
LKLYQAAL	inactive
LKLYTLLDRNSNKRTNAGMS	-0.469 ± 0.88
LKRLHFKSGDMSGQRQFRGS	inactive
LKSIYLLKWCPTSQLRTTSV	inactive
LKTVSMSYD	inactive
LKVMWLWSAKINYMSIVENL	inactive
LKVVYGSLALPSFKFIWQAE	inactive
LKWNTTSVNVVYLSFIIGRQ	2.15 ± 0.086
LLANDSWF	inactive
LLDYRPKTGNCRVQIRLCVV	inactive
LLGMLIRGDAF	inactive
LLGSMVWGYSARYNFRVSQG	inactive
LLHCQCSC	inactive
LLKVSGYWLMLRGLTRKFMG	-0.047 ± 1.1
LLKVVD	inactive
LLLSDFVSLLESPRVLHAQW	inactive
LLLTDSMSHLRFSHNSCMQQ	0.868 ± 0.17
LLMDGLIRFWS	inactive
LLNCGLMLLRIDVCRATYYV	1.36 ± 0.14

Substance	amyloid nucleation score
LLPLDSHYISSPFY	inactive
LLRGVRKE	inactive
LLSVICLTSIHF	2.74 ± 0.067
LLTSLDPDYSSPWCYSVDIC	inactive
LLVKSYNLYIMFSPHL	1.68 ± 0.078
LLVLPGGVSGVNLRDEWTDF	inactive
LLVLVV	inactive
LLVQLLLCKLKSMRLCCTVF	inactive
LLYENTVSSRGTVLRDHLS	0.456 ± 0.36
LMAFNPMYSSQKYGTNYSFM	inactive
LMGTSIPSKQADLGTEFSNF	inactive
LMKWALNTELKMG	inactive
LMNYRMGWWFVCENYNEML	0.571 ± 0.17
LMRTDNSSKNGSASGGGMSG	inactive
LMSFCHPDPIDFSVTGLCCR	-0.208 ± 0.39
LMYRYVTLNAFRESISYISS	inactive
LNCIFLVKVIYWTRFTWSTY	inactive
LNCNSESMLPLYNMVWRNRN	inactive
LNFVVYMIGGFCCHHFNVLF	1.3 ± 0.1
LNGASADRRDWAEWLKADHC	inactive
LNGIEGSGY	inactive

— the supplement of paper PMC12042874
